Data taken from patent publication US8440629B2, “Cyclic receptor-associated protein (RAP) peptides” (Raptor Pharmaceuticals Inc., priority 2007, dated 2013).

Target: T1, LRP2 CR3536 (Homo sapiens, UniProt P98164)
T1 construct: VLDLR CR78, LRP2 CR3536, LRP2 CR34-36 and MAT CR23; made in house; host or cells: E. coli BL21(DE3) CodonPlus-RIPL, pET30(+)a
Experiment: Solid phase binding assay
Conditions: highest ligand concentrations tested

T1 sequence (P98164 3880-3974 limits assumed): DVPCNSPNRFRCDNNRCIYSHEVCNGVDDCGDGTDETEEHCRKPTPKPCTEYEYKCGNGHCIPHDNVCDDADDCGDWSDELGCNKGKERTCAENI

B1: RAP d3: third domain of human RAP, amino acids 201-319 of mature RAP, bacterially expressed with hexahistidine and S-peptide tags (SEQ ID NO: 92) (protein, listed as Homo sapiens)
chain: LDRLRRVSHQGYSTEAEFEEPRVIDLWDLEQSANLTDKELEAFREELKHFEAKIEKHNHYQKQLEIAHEKLRHAESVGDGERVSRSREKHALLEGRTKELGYTVKKHLQDLSGRISRAR
modifications: hexahistidine and S-peptide tags
How did the “binding relative to that for LRP1 CR3-5” value turn out when B1 was run?
Its value is “less than 5%”.
